A word on the Kd: it is the concentration at which binding is half-saturated. High values mean a looser complex, low ones a tighter complex.

Results on three molecules are retold here after patent publication CN117377689A (XENCOR INC, dated 2024).

To fix the notation:
B1: XENP35843 (GPC3-A H1.1_L1.16, 1+1 Fab-scFv-Fc bsAb with CD3 High-Int #1 scFv) (bispecific antibody)
chain 1: QVQLVQSGAEVKKPGASVKVSCKASGYTFTDYEMHWVRQAPGQGLEWMGALEPKTGDTAYSQKFQGRVTMTADKSISTAYMELSRLRSDDTAVYYCTRFYSYTYWGQGTLVTVSSASTKGPSVFPLAPSSKSTSGGTAALGCLVKDYFPEPVTVSWNSGALTSGVHTFPAVLQSSGLYSLSSVVTVPSSSLGTQTYICNVNHKPSDTKVDKKVEPKSCDKTHTCPPCPAPPVAGPSVFLFPPKPKDTLMISRTPEVTCVVVDVKHEDPEVKFNWYVDGVEVHNAKTKPREEEYNSTYRVVSVLTVLHQDWLNGKEYKCKVSNKALPAPIEKTISKAKGQPREPQVYTLPPSREEMTKNQVSLTCDVSGFYPSDIAVEWESDGQPENNYKTTPPVLDSDGSFFLYSKLTVDKSRWEQGDVFSCSVMHEALHNHYTQKSLSLSPGK
chain 2: not shown
chain 3: DVVMTQSPLSLPVTLGQPASISCRSSQSLVHSSGNTYLHWYQQRPGQSPRLLIYKVSNRFSGVPDRFSGSGSGTDFTLKISRVEAEDVGVYFCSQSTHVPPTFGSGTKLEIKRTVAAPSVFIFPPSDEQLKSGTASVVCLLNNFYPREAKVQWKVDNALQSGNSQESVTEQDSKDSTYSLSSTLTLSKADYEKHKVYACEVTHQGLSSPVTKSFNRGEC
B2: XENP36140 (GPC3-A H1.1_L1.31, 1+1 Fab-scFv-Fc bsAb with CD3 High-Int #1 scFv) (bispecific antibody)
chain 1: B1 chain 1
chain 2: not shown
chain 3: B1 chain 3 with S33N, K55Y, S96N
B3: XENP36941 (GPC3-A H1.1_L1.29, 1+1 Fab-scFv-Fc bsAb with CD3 High-Int #1 scFv) (bispecific antibody)
chain 1: B1 chain 1
chain 2: not shown
chain 3: B1 chain 3 with S33N, K55Q, S96N

Where a chain is given by its changes, count along the chain named.

In the test the target is T1, His-tagged human GPC3 antigen (human, UniProt P51654 25-559, limits assumed).
T1 construct: His-tagged antigen captured on HIS1K Octet sensors; also called 人GPC3; human glypican-3
T1 sequence (P51654 25-559 limits assumed): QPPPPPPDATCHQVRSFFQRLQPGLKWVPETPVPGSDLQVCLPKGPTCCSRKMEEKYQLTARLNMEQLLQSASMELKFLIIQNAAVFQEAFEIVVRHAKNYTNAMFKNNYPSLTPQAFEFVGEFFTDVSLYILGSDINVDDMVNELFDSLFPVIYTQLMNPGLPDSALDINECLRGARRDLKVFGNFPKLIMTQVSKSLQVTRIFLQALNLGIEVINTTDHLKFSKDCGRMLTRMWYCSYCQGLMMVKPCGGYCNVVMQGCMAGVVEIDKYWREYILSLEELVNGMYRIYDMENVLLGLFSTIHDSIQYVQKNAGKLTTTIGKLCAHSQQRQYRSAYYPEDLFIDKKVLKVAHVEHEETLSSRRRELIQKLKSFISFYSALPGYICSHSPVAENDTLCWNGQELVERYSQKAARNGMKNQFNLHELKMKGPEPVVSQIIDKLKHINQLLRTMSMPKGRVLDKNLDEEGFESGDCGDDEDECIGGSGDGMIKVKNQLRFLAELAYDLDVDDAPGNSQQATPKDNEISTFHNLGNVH
The experiment in a line: Octet BLI; His-tagged GPC3 captured on HIS1K sensor, bsAb (1+1 Fab-scFv-Fc) as analyte. A general note: Biolayer interferometry detects binding as a change in optical thickness at a sensor tip.
In turn, B1 yielded a dissociation constant Kd of 100 nM.
Under B2 stands 400 nM; under B3, 70 nM.
